Substrate: NC(=O)NC(C(=O)O)c1ccc(O)cc1
Assay: HPLC of D-HPG formed, double reciprocal plot
Assay type: biochemical, Agrobacterium sp. KNK712
Settings: 50 mM Tris-HCl pH 7.5, 65 °C, 0.1-10.0 mM CpHPG
Text: HPLC of D-HPG formed, double reciprocal plot on DCase (N-carbamoyl-D-amino acid amidohydrolase, EC 3.5.1.77; N-carbamoyl hydrolase)

B1: DCase (N-carbamoyl-D-amino acid amidohydrolase, EC 3.5.1.77; N-carbamoyl hydrolase) (Agrobacterium sp. KNK712) (protein)
chain: MTRQMILAVGQQGPIARAETREQVVVRLLDMLTKAASRGANFIVFPELALTTFFPRWHFTDEAELDSFYETEMPGPVVRPLFEKAAELGIGFNLGYAELVVEGGVKRRFNTSILVDKSGKIVGKYRKIHLPGHKEYEAYRPFQHLEKRYFEPGDLGFPVYDVDAAKMGMFICNDRRWPEAWRVMGLRGAEIICGGYNTPTHNPPVPQHDHLTSFHHLLSMQAGSYQNGAWSAAAGKVGMEENCMLLGHSCIVAPTGEIVALTTTLEDEVITAAVDLDRCRELREHIFNFKQHRQPQHYGLIAEL
notes: pET-28a(+)-Case, N- and C-terminal His6 tags, expressed in E. coli BL21(DE3), Ni-NTA purified, about 37 kDa
Km: 2590 ± 220 µM | kcat: 7.98 ± 0.212 s⁻¹ | kcat/Km: 3080 ± 218 M⁻¹ s⁻¹
